Results taken from patent US20220340678A1 (MURAL ONCOLOGY, published 2022).

Assays:
[1] = biological target: T1, IL-2/IL-15 receptor on HH cells (human); assay: cell-based or functional assay
T1 chain 1: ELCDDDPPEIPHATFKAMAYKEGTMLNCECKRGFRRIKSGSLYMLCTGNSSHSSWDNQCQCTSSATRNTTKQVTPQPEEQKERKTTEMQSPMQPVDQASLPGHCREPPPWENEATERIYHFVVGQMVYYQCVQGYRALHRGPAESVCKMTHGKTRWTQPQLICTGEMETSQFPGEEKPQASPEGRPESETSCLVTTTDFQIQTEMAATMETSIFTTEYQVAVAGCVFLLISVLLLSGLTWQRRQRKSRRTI
T1 chain 2: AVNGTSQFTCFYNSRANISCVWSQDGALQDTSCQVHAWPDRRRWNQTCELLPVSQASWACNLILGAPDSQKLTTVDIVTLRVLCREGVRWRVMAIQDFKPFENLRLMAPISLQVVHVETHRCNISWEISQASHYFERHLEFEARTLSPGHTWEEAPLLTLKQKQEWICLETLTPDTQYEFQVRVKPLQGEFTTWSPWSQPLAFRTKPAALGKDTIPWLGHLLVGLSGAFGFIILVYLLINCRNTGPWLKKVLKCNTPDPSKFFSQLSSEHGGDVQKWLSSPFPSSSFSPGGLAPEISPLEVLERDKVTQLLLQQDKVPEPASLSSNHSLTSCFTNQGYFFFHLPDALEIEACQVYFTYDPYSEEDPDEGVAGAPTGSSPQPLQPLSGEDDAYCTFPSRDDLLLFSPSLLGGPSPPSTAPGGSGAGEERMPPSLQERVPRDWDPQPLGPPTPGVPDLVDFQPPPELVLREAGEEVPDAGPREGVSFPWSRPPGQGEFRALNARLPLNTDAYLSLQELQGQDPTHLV
T1 chain 3: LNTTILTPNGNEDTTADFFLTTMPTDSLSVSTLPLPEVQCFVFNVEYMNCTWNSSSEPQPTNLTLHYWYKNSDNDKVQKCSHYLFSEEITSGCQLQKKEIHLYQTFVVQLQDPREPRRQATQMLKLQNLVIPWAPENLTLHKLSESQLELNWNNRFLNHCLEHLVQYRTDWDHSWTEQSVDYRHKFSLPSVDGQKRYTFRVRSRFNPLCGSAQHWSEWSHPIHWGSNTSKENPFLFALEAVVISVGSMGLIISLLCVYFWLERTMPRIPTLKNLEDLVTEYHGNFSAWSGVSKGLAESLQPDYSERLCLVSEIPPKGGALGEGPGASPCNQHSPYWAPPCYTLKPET

[2] = biological target: Recombinant human uPAR his (R&D Systems, 807-UK-100/CF) (human, UniProt Q03405 23-303, biotinylated (sites not given)); assay: SPR (Biacore), biotinylated human uPAR his on streptavidin chip
[3] = biological target: T2, human uPAR expressed on HEK293 cells (human, UniProt Q03405 23-305); assay: flow cytometry, HEK293 cells expressing human uPAR, 100 nM uPA present
T2 construct: whole, on cells; also called Hu-uPAR

[4] = biological target: T3, histidine-tagged human uPAR (Sino#10925-H08H) (human, UniProt Q03405 23-303); assay: BLI (Octet), antibody on anti-mouse Fc sensor, uPAR in solution
T3 construct: also called uPAR-His

biotinylated human uPAR [5] = biological target: T4, biotinylated human uPAR (human, UniProt Q03405 23-303, limits assumed, biotinylated (site not stated)); assay: BLI (Octet) on biotinylated human uPAR; row 'None': no first antibody
biotinylated human uPAR [6] = biological target: T4, biotinylated human uPAR; assay: BLI (Octet) competition on biotinylated human uPAR; competitor (first antibody): M5
mouse uPAR on cells [7] = biological target: T5, mouse uPAR on cells (mouse, UniProt P35456 24-298); assay: flow cytometry, HEK293 cells expressing mouse uPAR, 100 nM uPA present
T5 construct: whole, on cells; also called Ms-uPAR; mouse uPAR (CD87)
T5 sequence (looked up): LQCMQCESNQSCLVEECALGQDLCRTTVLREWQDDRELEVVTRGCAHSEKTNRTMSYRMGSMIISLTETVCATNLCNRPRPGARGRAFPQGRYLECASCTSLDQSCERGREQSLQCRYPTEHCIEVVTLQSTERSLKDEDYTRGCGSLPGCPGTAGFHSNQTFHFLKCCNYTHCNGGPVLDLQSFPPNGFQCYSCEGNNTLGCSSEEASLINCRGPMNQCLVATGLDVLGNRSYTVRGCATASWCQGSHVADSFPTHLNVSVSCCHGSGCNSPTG

biotinylated human uPAR [8] = biological target: T4, biotinylated human uPAR; assay: BLI (Octet) competition on biotinylated human uPAR; competitor (first antibody): ATN-368 (ATN-658)
biotinylated human uPAR [9] = biological target: T4, biotinylated human uPAR; assay: BLI (Octet) competition on biotinylated human uPAR; competitor (first antibody): M1
[10] = biological target: Human uPAR DII-DIII domain HisAvi Tag (human, biotinylated (site not stated)); assay: BLI (Octet), biotinylated domain on SA sensor, antibody 200 nM
[11] = biological target: T3, histidine-tagged human uPAR …; assay: BLI (Octet), uPAR on sensor, antibody in solution (avidity)
[12] = biological target: IL-2/IL-15 receptor on primary mouse splenocytes (mouse); assay: cell-based or functional assay
mouse uPAR on cells [13] = biological target: T5, mouse uPAR on cells; assay: flow cytometry on MC38 cells (express mouse uPAR), anti-His detection
[14] = biological target: T6, Recombinant mouse uPAR-Fc (R&D Systems, Cat. No. 531-PA-100) (mouse, UniProt P35456 24-297, limits assumed); assay: SPR (Biacore), mouse uPAR-Fc captured on anti-human antibody chip
T6 construct: not shown: Fc of the bought fusion (captured with the human antibody capture kit); not described
T6 sequence (looked up): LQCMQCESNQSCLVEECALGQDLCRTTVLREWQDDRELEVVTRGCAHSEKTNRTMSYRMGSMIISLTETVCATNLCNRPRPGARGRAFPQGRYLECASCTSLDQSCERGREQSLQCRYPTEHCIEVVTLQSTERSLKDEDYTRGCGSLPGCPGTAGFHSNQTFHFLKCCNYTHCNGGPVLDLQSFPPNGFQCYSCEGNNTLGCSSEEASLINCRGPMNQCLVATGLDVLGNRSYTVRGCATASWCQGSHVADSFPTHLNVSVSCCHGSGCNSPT

B1: Human cpIL-2:IL-2Ra:Human uPA-ATF-His6 (other)
chain: SKNFHLRPRDLISNINVIVLELKGSETTFMCEYADETATIVEFLNRWITFSQSIISTLTGGSSSTKKTQLQLEHLLLDLQMILNGINNYKNPKLTRMLTFKFYMPKKATELKHLQCLEEELKPLEEVLNLAQGSGGGSELCDDDPPEIPHATFKAMAYKEGTMLNCECKRGFRRIKSGSLYMLCTGNSSHSSWDNQCQCTSSATRNTTKQVTPQPEEQKERKTTEMQSPMQPVDQASLPGHCREPPPWENEATERIYHFVVGQMVYYQCVQGYRALHRGPAESVCKMTHGKTRWTQPQLICTGGGSGGSNELHQVPSNCDCLNGGTCVSNKYFSNIHWCNCPKKFGGQHCEIDKSKTCYEGNGHFYRGKASTDTMGRPCLPWNSATVLQQTYHAHRSDALQLGLGKHNYCRNPDNRRRPWCYVQVGLKPLVQECMVHDCAHHHHHH
notes: also called 99
pSTAT5 EC50, HH cells [1]: 1.5 nM | Kd [2]: 0.59 nM | koff [2]: 0.00049 s⁻¹ | kon [2]: 830000 M⁻¹ s⁻¹

B2: M43 (antibody, V domains shown)
VH: QVQLQQSGAELARPGASVNLSCKASGYTFTSYGISWVKQRTGQGLEWIGEIYPRSGNTYYNEKFKGKATLTADKSSRTAYMELRSLTSEDSAVYFCAGKDYGSTYADYWGQGTTLTVSS
VL: QIVLTQSPAIMSASPGEKVTMTCSASSSVSSRYLHWYQQKSGASPKLWIYGTSNLASGVPARFSGSGSGTSYSLTINSVEAEDAATYYCQQYHSDPLTFGAGTKLELK
notes: Mouse hybridoma antibody; also called anti-uPAR antibody M43; parental M43
EC50 [3]: 0.3 nM | Kd [4]: 7.47 nM | koff [4]: 0.00883 s⁻¹ | kon [4]: 1.18e+06 M⁻¹ s⁻¹ | response in competition assay (biotinylated human uPAR [5]): 0.295 | response in competition assay (biotinylated human uPAR [6]): 0.0175 | EC50 (mouse uPAR on cells [7]): 2.83 nM | response in competition assay (biotinylated human uPAR [8]): 0.342 | response in competition assay (biotinylated human uPAR [9]): 0.312 | binding result [10]: binds | Kd [11]: < 0.001 nM | koff [11]: < 1e-07 s⁻¹ | kon [11]: 554000 M⁻¹ s⁻¹

B3: His6:Mouse uPA-ATF:mouse IL-15Ra:cpIL-15 (other)
chain: HHHHHHGSVLGAPDESNCGCQNGGVCVSYKYFSRIRRCSCPRKFQGEHCEIDASKTCYHGNGDSYRGKANTDTKGRPCLAWNAPAVLQKPYNAHRPDAISLGLGKHNYCRNPDNQKRPWCYVQIGLRQFVQECMVHDCGGSGGTTCPPPVSIEHADIRVKNYSVNSRERYVCNSGFKRKAGTSTLIECVINKNTNVAHWTTPSLKCIRDGGSELEEKTFTEFLQSFIRIVQMFINGGGSNWIDVRYDLEKIESLIQSIHIDTTLYTDSDFHPSCKVTAMNCFLLELQVILHEYSNMTLNETVRNVLYLANSTLSSNKNVAESGCKEC
notes: also called 102
pSTAT5 EC50, mouse NK cells [12]: 0.15 nM | pSTAT5 EC50, mouse Tregs [12]: 1.7 nM | pSTAT5 EC50, mouse memory CD8 T cells [12]: 0.5 nM | EC50 (mouse uPAR on cells [13]): 0.41 nM | Kd [14]: 0.14 nM | koff [14]: 0.0002 s⁻¹ | kon [14]: 1.5e+06 M⁻¹ s⁻¹

B4: Human IL-15Ra:cpIL-15 (other)
chain: ITCPPPMSVEHADIWVKSYSLYSRERYICNSGFKRKAGTSSLTECVLNKATNVAHWTTPSLKCIRDGGSELEEKNIKEFLQSFVHIVQMFINGGGSNWVNVISDLKKIEDLIQSMHIDATLYTESDVHPSCKVTAMKCFLLELQVISLESGDASIHDTVENLIILANNSLSSNGNVTESGCKEC
pSTAT5 EC50, HH cells [1]: 39 pM

B5: Human uPA-ATF:Human cpIL-2:IL-2Ra:His6 (other)
chain: SNELHQVPSNCDCLNGGTCVSNKYFSNIHWCNCPKKFGGQHCEIDKSKTCYEGNGHFYRGKASTDTMGRPCLPWNSATVLQQTYHAHRSDALQLGLGKHNYCRNPDNRRRPWCYVQVGLKPLVQECMVHDCAGGSGGSKNFHLRPRDLISNINVIVLELKGSETTFMCEYADETATIVEFLNRWITFSQSIISTLTGGSSSTKKTQLQLEHLLLDLQMILNGINNYKNPKLTRMLTFKFYMPKKATELKHLQCLEEELKPLEEVLNLAQGSGGGSELCDDDPPEIPHATFKAMAYKEGTMLNCECKRGFRRIKSGSLYMLCTGNSSHSSWDNQCQCTSSATRNTTKQVTPQPEEQKERKTTEMQSPMQPVDQASLPGHCREPPPWENEATERIYHFVVGQMVYYQCVQGYRALHRGPAESVCKMTHGKTRWTQPQLICTGHHHHHH
notes: also called 98
Kd [2]: 2.2 nM | koff [2]: 0.001 s⁻¹ | kon [2]: 460000 M⁻¹ s⁻¹

B6: His6:Human uPA-ATF:hIL-15Ra:cpIL-15 (other)
chain: HHHHHHSNELHQVPSNCDCLNGGTCVSNKYFSNIHWCNCPKKFGGQHCEIDKSKTCYEGNGHFYRGKASTDTMGRPCLPWNSATVLQQTYHAHRSDALQLGLGKHNYCRNPDNRRRPWCYVQVGLKPLVQECMVHDCAGGSGGITCPPPMSVEHADIWVKSYSLYSRERYICNSGFKRKAGTSSLTECVLNKATNVAHWTTPSLKCIRDGGSELEEKNIKEFLQSFVHIVQMFINGGGSNWVNVISDLKKIEDLIQSMHIDATLYTESDVHPSCKVTAMKCFLLELQVISLESGDASIHDTVENLIILANNSLSSNGNVTESGCKEC
notes: also called 100
pSTAT5 EC50, HH cells [1]: 0.18 nM | Kd [2]: 1.1 nM | koff [2]: 0.00056 s⁻¹ | kon [2]: 500000 M⁻¹ s⁻¹

B7: Human cpIL-2:IL-2Ra (other)
chain: SKNFHLRPRDLISNINVIVLELKGSETTFMCEYADETATIVEFLNRWITFSQSIISTLTGGSSSTKKTQLQLEHLLLDLQMILNGINNYKNPKLTRMLTFKFYMPKKATELKHLQCLEEELKPLEEVLNLAQGSGGGSELCDDDPPEIPHATFKAMAYKEGTMLNCECKRGFRRIKSGSLYMLCTGNSSHSSWDNQCQCTSSATRNTTKQVTPQPEEQKERKTTEMQSPMQPVDQASLPGHCREPPPWENEATERIYHFVVGQMVYYQCVQGYRALHRGPAESVCKMTHGKTRWTQPQLICTG
pSTAT5 EC50, HH cells [1]: 1.1 nM
